Laboratory results: patent US20210388084A1

What was measured:
[1] = target: membrane-bound full-length human CD89 (human) (UniProt P24071); assay: FACS, HEK293F-huCD89, 4C +NaN3, IgA then Ab 10 ug/mL; pre-bound non-aggr serum IgA
[2] = target: membrane-bound full-length human CD89 (human) (UniProt P24071); assay: FACS, HEK293F-huCD89, unlabeled Ab 10 ug/mL first; competitor MIP8a-PE
[3] = target: membrane-bound full-length human CD89 (human) (UniProt P24071); assay: FACS, HEK293F-huCD89 (Example 7 (b)); competitor heat-aggr serum IgA
[4] = target: membrane-bound full-length human CD89 (human) (UniProt P24071); assay: FACS, HEK293F-huCD89, unlabeled Ab 10 ug/mL first; competitor A3-PE
[5] = target: membrane-bound full-length human CD89 (human) (UniProt P24071); assay: FACS, HEK293F-huCD89, 24 h 37C no NaN3, Ab 10 ug/mL then IgA; competitor heat-aggr serum IgA
[6] = target: membrane-bound full-length human CD89 (human) (UniProt P24071); assay: FACS, HEK293F-huCD89, 24 h 37C no NaN3, Ab 10 ug/mL then IgA; competitor non-aggr serum IgA
[7] = target: membrane-bound full-length human CD89 (human) (UniProt P24071); assay: FACS, HEK293F-huCD89 (Example 7 (b)); competitor non-aggr serum IgA
[8] = target: membrane-bound full-length human CD89 (human) (UniProt P24071); assay: FACS, HEK293F-huCD89, unlabeled Ab 10 ug/mL first; competitor A59-PE
[9] = target: membrane-bound full-length human CD89 (human) (UniProt P24071); assay: FACS, HEK293F-huCD89, titrated Ab; competitor non-aggr serum IgA
[10] = target: membrane-bound full-length human CD89 (human) (UniProt P24071); assay: FACS, HEK293F-huCD89, 24 h 37C no NaN3, IgA then Ab 10 ug/mL; pre-bound heat-aggr serum IgA
[11] = target: membrane-bound full-length human CD89 (human) (UniProt P24071); assay: FACS, HEK293F-huCD89, 4C +NaN3, Ab 10 ug/mL then IgA; competitor heat-aggr serum IgA
[12] = target: membrane-bound full-length human CD89 (human) (UniProt P24071); assay: FACS, HEK293F-huCD89, titrated Ab; competitor heat-aggr serum IgA
[13] = target: membrane-bound full-length human CD89 (human) (UniProt P24071); assay: FACS, HEK293F-huCD89, 4C +NaN3, IgA then Ab 10 ug/mL; pre-bound heat-aggr serum IgA
[14] = target: membrane-bound full-length human CD89 (human) (UniProt P24071); assay: FACS, HEK293F-huCD89, 4C +NaN3, Ab 10 ug/mL then IgA; competitor non-aggr serum IgA
[15] = target: membrane-bound full-length human CD89 (human) (UniProt P24071); assay: FACS, HEK293F-huCD89, 24 h 37C no NaN3, IgA then Ab 10 ug/mL; pre-bound non-aggr serum IgA

| percent IgA binding [1] | % blocking of MIP8a-PE binding [2] | maximum inhibition of IgA binding [3] | % blocking of A3-PE binding [4] | percent IgA binding (remaining) [5] | percent IgA binding (remaining) [6] | maximum inhibition of IgA binding [7] | % blocking of A59-PE binding [8] | maximum inhibition of IgA binding [9] | percent IgA binding (remaining) [10] | % blocking of IgA binding [11] | percent IgA binding [11] | maximum inhibition of IgA binding [12] | percent IgA binding [13] | % blocking of IgA binding [14] | percent IgA binding [14] | percent IgA binding (remaining) [15] | Substance |
| --- | --- | --- | --- | --- | --- | --- | --- | --- | --- | --- | --- | --- | --- | --- | --- | --- | --- |
| 76 to 125% | < 25% | 60% | > 90% | 76 to 125% | 26 to 50% | 60% | > 90% | 60% | 76 to 125% | 60% | 26 to 50% | 60% | 76 to 125% | 60% | 26 to 50% |  | mouse anti-human CD89 antibody clone A3 (Santa Cruz Biotechnology) |
| 76 to 125% | < 25% | 60% | > 90% | 76 to 125% | 26 to 50% | 60% | > 90% | 60% | 76 to 125% | 60% | 26 to 50% | 60% | 76 to 125% | 60% | 26 to 50% | 26 to 50% | mouse anti-human CD89 antibody clone A59 (BD Biosciences) |
| 0 to 25% | > 90% |  | 55% | 0 to 25% | 0 to 25% |  | 50% |  | 0 to 25% |  | 0 to 25% |  | 0 to 25% |  | 0 to 25% | 0 to 25% | mouse anti-human CD89 antibody clone MIP8a (BioRad) |
| 76 to 125% |  |  |  | 76 to 125% | 76 to 125% |  |  |  | 76 to 125% |  | 76 to 125% |  | 76 to 125% |  | 76 to 125% | 76 to 125% | purified mouse IgG1 isotype control (antibody) |
